Data on 27 sequences can be found in the supplement of paper PMC9170038.

This data set deals with MS2 coat protein. The data set can be described thus: apparent KD of MS2 coat protein; higher = weaker reporter binding. Particulars: Eterna round: R107. In a few lines: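 Designed RNA switches were transcribed on-chip from Illumina sequencing clusters. SNAP-549-labelled MS2 coat protein was titrated onto them in twofold steps from 0.7 or 1.5 nM to 3 µM in 100 mM Tris-HCl pH 7.5, 80 mM KCl, 4 mM MgCl2, either without or with constant ligand. Apparent KD reflects the per-design median of normalised cluster binding-curve fits.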

[1] abbreviates: input ligand: theophylline 20 uM.
The mark [2] stands for this setting: input ligand: tryptophan 2.4 mM.
The mark [3] stands for this setting: input ligand: theophylline 2 mM.

On to “GGGUGCGGGAUAGAUACCAGUGCCUUAAAAUAGGCACAUGAGGAUCACCCAUGUACCGGGCGCCCUUGGCAGCUAGUACCAUCCA [Edanrele]”, for which the “apparent KD of MS2 coat protein” value is 93.9 nM (input ligand: arginine 13.2 mM), 190 nM under setting [1] and 147 nM under setting [2].

“GGGUGUGAUCCGGAUACCAGUGAACAUGAGGAUCACCCAUGUGACCUGAGAUCGGCUCUUCACCCUUGGCAGCCGCGGUCGCAGG [Same State Theophylline B GF14]”: the “apparent KD of MS2 coat protein” value was found to be 11.4 nM (input ligand: arginine 13.2 mM); 11.5 nM (input ligand: none); 18.6 nM under setting [1]; 10.7 nM under setting [3]; 10 nM under setting [2].

As to “GGUAUGUAUUCGGAAACGAAUGCAUACCAACGAGGACCGGUACGGCCGCCACUCGGCGGCGAUCAACAUGAGGAUCACCCAUGUA [Ex Tryptophan A 3]”, the “apparent KD of MS2 coat protein” value reads like this: (input ligand: arginine 13.2 mM) 26.2 nM; under setting [1], 43.7 nM; under setting [3], 42.4 nM.

For “GGUCUGUGGAGCGAUACCAGCUUGAGUGUACUGGCCAGGUACAUGAGGAUCACCCAUGUAAGCCCUUGGCAGCGCUCCAGAGACC [#1 Exclusion - Theophylline B Attempt #17 (HarryS)]”, the “apparent KD of MS2 coat protein” value reads like this: (input ligand: arginine 13.2 mM) 7.42 nM; (input ligand: none) 9.29 nM; under setting [1], 13.8 nM; under setting [3], 31.5 nM; under setting [2], 10.9 nM.

Consider “GGUGACUGCAUGUGGAAUUAAGGUAGGGAAGGAGCGCGGUAAGACGCAGGUAGGUCGCCCUACAUGAGGAUCACCCAUGUGGUGU [Beenmaer]”, for which the “apparent KD of MS2 coat protein” value stood at 114 nM (input ligand: arginine 13.2 mM); 121 nM (input ligand: none); 135 nM under setting [1]; 500 nM under setting [3]; 36.5 nM under setting [2].

Take “GGUGAUCCGUAUCACCGGAUCACCGGUGAUACCAGCAUCGAAAGAUGCCCUUGGCAGCACCAACAUGAGGAUCACCCAUGUAAUA [(M)'-(T)'-(M)''-(T1)-(T2)-(M1)-(M2)_Design6b]”: the “apparent KD of MS2 coat protein” value (input ligand: arginine 13.2 mM) was found to be 69.6 nM, the “apparent KD of MS2 coat protein” value under setting [1] was 62.4 nM and the “apparent KD of MS2 coat protein” value under setting [2] was determined as 143 nM.

In the case of “GGUGGCGUGACGGAUACCAGCCACCACCGUUAGACCACAUGAGGAUCACCCAUGUUGGGUGGCCCUUGGCAGCUGUCGUGCGGCG [#1 Same State - Theophylline B Attempt #18 (HarryS)]”, the “apparent KD of MS2 coat protein” value by setting is: (input ligand: arginine 13.2 mM) 140 nM; (input ligand: none) 377 nM; under setting [1], 250 nM; under setting [3], 113 nM; under setting [2], 337 nM.

As for “GGUGGCUCCAUCGAUACCAGCCACCACCGAUAGACCACAUGAGGAUCACCCAUGUUGGGUGGCCCUUGGCAGCGGUGAAGCUGCC [#1 Same State - Theophylline B Attempt #4 (HarryS)]”, the “apparent KD of MS2 coat protein” value is 44.1 nM (input ligand: arginine 13.2 mM); 304 nM (input ligand: none); 416 nM under setting [1]; 34.5 nM under setting [3]; 657 nM under setting [2].

As to “GGUUGGUGUAGAGAUAUAUUGAUUACUGAAGGAGCGGGAAGAAACCCAGGUAGGUCGCAGAGAUCCACAUGAGGAUCACCCAUGU [!0.L]”, the “apparent KD of MS2 coat protein” value (input ligand: arginine 13.2 mM) was found to be 26.7 nM; the “apparent KD of MS2 coat protein” value (input ligand: none) stood at 38.6 nM; the “apparent KD of MS2 coat protein” value under setting [1] turned out to be 49.5 nM; the “apparent KD of MS2 coat protein” value under setting [3] was 59.3 nM; the “apparent KD of MS2 coat protein” value under setting [2] came to 27.5 nM.

On to “GGUUGGUUUAUAUAUAGAUUGAUUACUGAAGGAGCGGGAAAUAACCCAGGUAGGUCGCAGAGAUCCACAUGAGGAUCACCCAUGU [!0.I]”, for which the “apparent KD of MS2 coat protein” value reads like this: (input ligand: arginine 13.2 mM) 34.2 nM; (input ligand: none) 39.5 nM; under setting [1], 50.6 nM; under setting [3], 53 nM; under setting [2], 42.9 nM.

On to “GUAUGGAAACAUACUAGGGUAUCAUGAGAUACCAGUACAGAAAUGUACCCUUGGCAGCUCAAGCAUACAUGAGGAUCACCCAUGU [Ex Theophylline A 7]”, for which the “apparent KD of MS2 coat protein” value worked out at 15 nM (input ligand: arginine 13.2 mM), 22.7 nM under setting [1] and 15.8 nM under setting [2].

Take “GUAUGGAAACAUACUAGGGUAUCGUGAGAUACCAGUACAGAAAUGUACCCUUGGCAGCUCGCGCAUACAUGAGGAUCACCCAUGU [Ex Theophylline A 9]”: the “apparent KD of MS2 coat protein” value reads like this: (input ligand: arginine 13.2 mM) 19.4 nM; under setting [1], 26.9 nM; under setting [2], 19.7 nM.

In the case of “GUUGCACAUGAGGAUCACCCAUGUUUGGAUACCAGUCUCUGUAAUGACCCUUGGCAGCCACCAUAGACGCUUGAGUAGAGCCUGA [theeternabot_sameState_MS2_Theo_A_21]”, the “apparent KD of MS2 coat protein” value runs as follows: (input ligand: arginine 13.2 mM) 14.2 nM; under setting [1], 19.4 nM; under setting [2], 15.5 nM.

In the case of “GUUUACAUGAGGAUCACCCAUGUCGCCGGCCGAGGACCGGUACGGCCGCCACUCGUCCUAAUGGCACUUGACUUCCCUAUUAAGU [theeternabot_sameState_MS2_Trp_A_33]”, the “apparent KD of MS2 coat protein” value stood at 20.4 nM (input ligand: arginine 13.2 mM), 31.3 nM under setting [1] and 25.5 nM under setting [3].

Take “UAAACUACACAUGAGGAUCACCCAUGUGGCCGAGGACCGGUACGGCCGCCACUCGUGUGUUAAUAAAAGAACUGCAAGGUUCUUC [Uslausce]”: the “apparent KD of MS2 coat protein” value by setting is: (input ligand: arginine 13.2 mM) 76.1 nM; under setting [1], 325 nM; under setting [3], 748 nM.

As to “UAAAUAAUCUGGGUGUAGGUAAUAACAGAUACCAGCCAGAUAACUGGCCCUUGGCAGCUGAAAACAUGAGGAUCACCCAUGUAAA [Mat - Same State Theophlline A - Mod of Eli - D19]”, the “apparent KD of MS2 coat protein” value runs as follows: (input ligand: arginine 13.2 mM) 58.3 nM; (input ligand: none) 80.6 nM; under setting [1], 129 nM; under setting [3], 84.6 nM; under setting [2], 57.4 nM.

For “UAACAUGAGGAUCACCCAUGUUUAGAUGAACGAGGACCGGUACGGCCGCCACUCGAUAAGUGGAAAGAGCGAGGGAUUGUAUGCU [Same State Trp A GF4]”, the “apparent KD of MS2 coat protein” value amounted to 12.2 nM (input ligand: arginine 13.2 mM); 12.4 nM (input ligand: none); 16.2 nM under setting [1]; 10.3 nM under setting [3]; 11.9 nM under setting [2].

Consider “UAACAUGAGGAUCACCCAUGUUUGGAGAAACGAGGACCGGUACGGCCGCCACUCGAGGAGUGGAUGAGAAGUGGGAUAGAGUGAU [Same State Trp A GF6]”, for which the “apparent KD of MS2 coat protein” value (input ligand: arginine 13.2 mM) came to 19.2 nM; the “apparent KD of MS2 coat protein” value (input ligand: none) stood at 19.6 nM; the “apparent KD of MS2 coat protein” value under setting [1] amounted to 19.6 nM; the “apparent KD of MS2 coat protein” value under setting [3] worked out at 17.5 nM; the “apparent KD of MS2 coat protein” value under setting [2] is 15.1 nM.

Turning to “UACAUAUGCCGAAGGAGCGCGAGAUGCAAAGCAUCAUUCCUCACAUGAGGAUCACCCAUGUCGCAGGUAGGUCGCGGCAUAUGUU [ArgBX]”, the “apparent KD of MS2 coat protein” value came to 46.7 nM (input ligand: arginine 13.2 mM); 32.5 nM (input ligand: none); 45.1 nM under setting [1]; 40.3 nM under setting [3]; 32.4 nM under setting [2].

Consider “UACCGAUACGGAAGGAGCGUAGAAGUAGUACAUGAGGAUCACCCAUGUAUGGGUAAUUUCGUACAGGUAGGUCGCCGUAUCGGUA [SSAB NP+V+V2 #23]”, for which the “apparent KD of MS2 coat protein” value by setting is: (input ligand: arginine 13.2 mM) 23.3 nM; (input ligand: none) 31.8 nM; under setting [1], 38.3 nM; under setting [3], 40 nM; under setting [2], 35.5 nM.

Take “UACCGAUGAAGAAGGAGCGUAUGCUUAUAUGAUGGUAACAUGAGGAUCACCCAUGUCAGUAUACAGGUAGGUCGCUUCAUCGGUA [EAB NP+V+V2 #22]”: the “apparent KD of MS2 coat protein” value runs as follows: (input ligand: arginine 13.2 mM) 45.3 nM; (input ligand: none) 59.1 nM; under setting [1], 68.6 nM; under setting [3], 73.3 nM; under setting [2], 45.8 nM.

Consider “UACGCUAGGGCGGCCGCCACUCGGACAUGAGGAUCACCCAUGUCGAUUAAUUGAAGGACAUGAAUGAGGACCGGGCUAAGCUAGG [Same State - Tryptophan B / B]”, for which the “apparent KD of MS2 coat protein” value was determined as 20.8 nM (input ligand: arginine 13.2 mM); 29.4 nM (input ligand: none); 38.9 nM under setting [1]; 27.1 nM under setting [3]; 23.4 nM under setting [2].

For the sequence “UACUUGCUGACGGCCGCCACUAGAACAUGAGGAUCACCCAUGUAGGUCCUAGAUUCCUCAUGAACUAGGACCGGGUCAGCAAGAU [(Trp1)-(Ms2)-(T)'-(M)'-(Trp2)_Design15]”, the “apparent KD of MS2 coat protein” value amounted to 53.7 nM (input ligand: arginine 13.2 mM), 201 nM under setting [1] and 221 nM under setting [3].

With “UACUUGCUGACGGCCGCCACUAGAACAUGAGGAUCACCCAUGUAUUCUAGUCGUCAUGGGUGGACUAGGACCGGGUCAGCAAGAU [(Trp1)-(Ms2)-(T)'-(M)'-(Trp2)_Design8]”, the “apparent KD of MS2 coat protein” value turned out to be 30.7 nM (input ligand: arginine 13.2 mM); 33.8 nM (input ligand: none); 41.8 nM under setting [1]; 34.7 nM under setting [3]; 192 nM under setting [2].

In the case of “UAUAACAUGAGGAUCACCCAUGUAAGUGAUACCAGAUAAAUAAUAGUCCCUUGGCAGCAUAUUGGGAAAAUGUAUAAUAUAUAUU [Same State - Theophylline A (Freestyle 1)]”, the “apparent KD of MS2 coat protein” value runs as follows: (input ligand: arginine 13.2 mM) 49.9 nM; under setting [1], 72.1 nM; under setting [2], 49.4 nM.

With “UAUAGUGUGAUGGAUACCAGCAGAGAAAACGUUUAUCCUAACAUGAGGAUCACCCAUGUAUGCCCUUGGCAGCUGUUGUGUUAUA [8.O]”, the “apparent KD of MS2 coat protein” value runs as follows: (input ligand: arginine 13.2 mM) 28.9 nM; under setting [1], 42.5 nM; under setting [2], 30.3 nM.

Take “UAUAUAUAUCACUAACUGUUCUUGAGGUCUCGAGGACCGGUACGGCCGCCACUCGUGCCGCCUCACAUGAGGAUCACCCAUGUCC [XTryp A #2]”: the “apparent KD of MS2 coat protein” value worked out at 55.3 nM (input ligand: arginine 13.2 mM), 79.4 nM under setting [1] and 81.6 nM under setting [3].
